Values belong to the binder of their own block, whether it stands above or below them.
What was measured:
[1] = target: the molecule itself; assay: SDS-PAGE and immunoblot of Sf21 culture medium
Method: Sf21 cells [see Vaughn et al., In Vitro, 13:213-17 (1977)] were infected with the baculovirus stocks of Example 10 at a multiplicity of infection of 10 virus particles per cell. The infected Sf21 cells were grown in roller flasks and seeded at a density of 2×10⁶ cells per ml of serum free medium (Sf900II, Gibco-BRL) for 96 hours. Culture media and cells were then harvested. Aliquots of the cell lysates and of the media were analyzed by SDS-PAGE. Total protein patterns were visualized by staining the gels with Coomassie Brilliant Blue and the presence of expressed VEGF-B isoforms were visualized by immunoblotting using specific antipeptide antibodies to human and mouse VEGF-B as described above in Example 8. […] Both proteins were retained intracellularly in the infected cells and not released into the medium. In contrast, mouse VEGF-B-₁₈₆ was readily secreted into the medium in a dimeric form.

[2] = target: T1, human VEGF165 (human, UniProt P15692 27-191); assay: cotransfected Cos-1 cells; immunoprecipitation of media and lysates, reducing SDS-PAGE (FIG. 23B)
T1 construct: mature; Expressed from cDNA in 293EBNA cells (pREP7) or Cos-1 cells (pSG5)
Method: cDNA inserts encoding mouse VEGF-B₁₈₆ and human VEGF₁₆₅ were cloned into the pSG5 expression vector [Green et al., Nucleic Acid Res., 16:369 (1988)]. Cos-1 cells were maintained in minimal essential medium (MEM) containing 10% fetal calf serum, 2 mM glutamine and appropriate antibiotics. For transfections, the cells were replated into 90 mm Petri dishes. The cells were transfected with the expression vectors, separately or in combination, using calcium phosphate precipitation and incubated for 36-48 hours. Monolayers of cells were incubated in medium free of methionine and cysteine for 30 min and then incubated in the same medium containing 100 μCi/ml of [³⁵S]-methionine and [³⁵S]-cysteine for 2 hours (Promix Amersham Inc.).
For the pulse-chase experiments, the cells were labeled for 30 minutes, washed twice with normal medium and then incubated for up to 6 hours in MEM without fetal calf serum. Media were collected after the chase period and the cells were solubilized in 10 mM Tris buffer pH 7.5 containing 50 mM NaCl, 0.5% deoxycholate, 0.5% nonidet P-40 and 0.1% SDS. Aliquots of the media and the cell lysates were subjected to immunoprecipitation using the specific antiserum to mouse VEGF-B from Example 8a and a specific antiserum to human VEGF commercially available from R&D Systems. The precipitates were analyzed by SDS-PAGE. […]

[3] = target: the molecule itself; assay: immunoprecipitation and SDS-PAGE, transfected 293EBNA cells
Source text: The biochemical properties of human VEGF-B₁₆₇ were examined in transfected human embryonic kidney 293EBNA cells (Invitrogen, Inc.). cDNA inserts encoding human VEGF-B₁₆₇ and human VEGF₁₆₅ [see Keck et al., Science, Vol. 246, pages 1309-312 (1989)] were individually cloned into the pREP7 expression vector (Invitrogen, Inc.). Human embryo kidney 293EBNA cells (expressing Epstein-Barr virus nuclear antigen-1) were transfected by transient transfection with the respective expression plasmids using calcium phosphate precipitation, and the cells were incubated for 48 hours. As a control, cells also were transfected with an expression vector containing the VEGF-B₁₆₇ cDNA in reverse orientation. Monolayers of cells were incubated in methionine-free and cysteine-free medium for 30 minutes followed by labeling with 100 μCi/ml [³⁵S]methionine and [³⁵S]cysteine (Promix, Amersham Inc.) in the same medium for 2 hours. […]
VEGF-B₁₆₇ was expressed in the cells transfected with the plasmids containing the VEGF-B₁₆₇ DNA. Aliquots of the culture supernatants from cells treated or untreated with heparin and detergent solubilized cell lysates were subjected to immunoprecipitation with the specific antipeptide antiserum to VEGF-B obtained as described in Example 8 and analyzed by SDS-PAGE under reducing conditions unless otherwise indicated. […]

[4] = target: T1, human VEGF165; assay: coexpression in transfected cells, immunoprecipitation
Source text: The biochemical properties of human VEGF-B₁₆₇ were examined in transfected human embryonic kidney 293EBNA cells (Invitrogen, Inc.). cDNA inserts encoding human VEGF-B₁₆₇ and human VEGF₁₆₅ [see Keck et al., Science, Vol. 246, pages 1309-312 (1989)] were individually cloned into the pREP7 expression vector (Invitrogen, Inc.). Human embryo kidney 293EBNA cells (expressing Epstein-Barr virus nuclear antigen-1) were transfected by transient transfection with the respective expression plasmids using calcium phosphate precipitation, and the cells were incubated for 48 hours. As a control, cells also were transfected with an expression vector containing the VEGF-B₁₆₇ cDNA in reverse orientation. Monolayers of cells were incubated in methionine-free and cysteine-free medium for 30 minutes followed by labeling with 100 μCi/ml [³⁵S]methionine and [³⁵S]cysteine (Promix, Amersham Inc.) in the same medium for 2 hours. The labeling medium was replaced with normal medium without serum, and labelled proteins were chased for 6 hours. Heparin was included during the chase when indicated (100 μg/ml). Media were collected after the chase period, and cells were solubilized in 10 mM Tris pH 7.5, 50 mM NaCl, 0.5% sodium deoxycholate, 0.5% Nonidet P-40, 0.1% SDS and 0.1 U/ml aprotinin. […]

T1 sequence (P15692 other isoform, or with tags, fused parts or gaps): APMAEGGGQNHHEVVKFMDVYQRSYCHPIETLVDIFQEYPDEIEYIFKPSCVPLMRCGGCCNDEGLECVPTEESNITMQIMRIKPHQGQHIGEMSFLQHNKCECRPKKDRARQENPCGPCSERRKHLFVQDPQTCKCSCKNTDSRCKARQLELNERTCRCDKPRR

- binding result [2]: binds
B1: murine VEGF-B186 (ligand)
chain: PVAQFDGPSHQKKVVPWIDVYARATCQPREVVVPLSMELMGNVVKQLVPSCVTVQRCGGCCPDDGLECVPTGQHQVRMQILMIQYPSSQLGEMSLEEHSQCECRPKKKESAVKPDRVAIPHHRPQPRSVPGWDSTPGASSPADIIHPTPAPGSSARLAPSAVNALTPGPAAAAADAAASSIAKGGA
notes: Expressed in Cos-1 cells (pSG5) or Sf21 insect cells; The form secreted from Cos-1 cells carries an unidentified covalent modification (Mr 32,000 against 24,000 in cells); it forms disulfide-linked homodimers and heterodimers with VEGF165; also called mVEGF-B186; mouse VEGF-B186
- binding result [1]: binds

- binding result [4]: binds
B2: human VEGF-B167 (ligand)
chain: PVSQPDAPGHQRKVVSWIDVYTRATCQPREVVVPLTVELMGTVAKQLVPSCVTVQRCGGCCPDDGLECVPTGQHQVRMQILMIRYPSSQLGEMSLEEHSQCECRPKKKDSAVKPDSPRPLCPRCTQHHQRPDPRTCRCRCRRRSFLRCQGRGLELNPDTCRCRKLRR
notes: Expressed from cDNA in 293EBNA cells (pREP7) or in Sf9/Sf21 insect cells; it forms disulfide-linked homodimers and heterodimers with VEGF165; also called hVEGF-B167; vascular endothelial growth factor B
- binding result [3]: binds

— patent US20050064493A1 (LICENTIA, published 2005)
